Where “and” joins values, the source holds several entries; their conditions need not be identical. Equal values may be shown once.
Test system: 3′-dATP
Experiment: Test (2): 3′-dATP added during in vitro transcription with Biotin-labeled CTP, chemoluminescent signal detection
Assay type: biochemical
Details: 3′-dATP concentration 0.00125 mM, wild form taken as 1, average of three runs
Experimental: The ability to incorporate 3′-dATP of the Δ type enzyme of purified T7 RNA polymerase was compared to that of the wild type and F644Y mutation.
In this method, 3′-dATP was added during an in vitro transcription reaction and the synthesis level was determined by comparison with synthesis impairment. This will be described in greater detail. The template employed was pBluescriptII (Stratagene) pretreated with the restriction enzyme ScaI (made by Nippon Gene). The reaction conditions were: 40 mM Tris-HCl, pH 8.0, 25 mM NaCl, 8 mM MgCl2, 2 mM spermidine-(HCl)3, and 5 mM DTT. The concentration of ribonucleotides rATP, rCTP, rGTP, and rUTP was 0.5 mM. A 0.1 mM quantity of Biotin-labeled CTP was added and 3′-dATP was added in ranges of 0.00125 mM, 0.0025 mM, and 0.005 mM. A 25 U quantity of enzymes purified as set forth above were added to 10 μL of this solution and the reaction was conducted for 60 min at 37° C. At the conclusion of the reaction, 1 μL of 10× gel loading buffer (1 mM EDTA, 1% SDS, 50% glycerol, and 0.05% BPB) was added. The entire solution was then subjected to electrophoresis in a 1% modified formamide gel. At the conclusion of electrophoresis, northern hybridization was conducted, the synthesized product was transcribed onto a nylon membrane, and signal detection was conducted based on a chemoluminescent substrate according to a protocol of anti-SA-AP antibody (made by Oriental Yeast Co., diluted 20,000-fold) and CDP-Star™ (made by Roche Co.). A Fluoro S Multiimager (BioRad Co.) and Multianalyst, an attached image analyzing software package, were then employed to determine the level of the signal detected.

B1: T7 RNA polymerase F644Y/Δ3: T7 RNA polymerase F644Y with Δ3 deficiency (DEL 178-180) (protein, UniProt P00573 1-883, looked up, variant F644Y del178-180)
T7 RNA polymerase: MNTINIAKNDFSDIELAAIPFNTLADHYGERLAREQLALEHESYEMGEARFRKMFERQLKAGEVADNAAAKPLITTLLPKMIARINDWFEEVKAKRGKRPTAFQFLQEIKPEAVAYITIKTTLACLTSADNTTVQAVASAIGRAIEDEARFGRIRDLEAKHFKKNVEEQLNKRVGHVAFMQVVEADMLSKGLLGGEAWSSWHKEDSIHVGVRCIEMLIESTGMVSLHRQNAGVVGQDSETIELAPEYAEAIATRAGALAGISPMFQPCVVPPKPWTGITGGGYWANGRRPLALVRTHSKKALMRYEDVYMPEVYKAINIAQNTAWKINKKVLAVANVITKWKHCPVEDIPAIEREELPMKPEDIDMNPEALTAWKRAAAAVYRKDKARKSRRISLEFMLEQANKFANHKAIWFPYNMDWRGRVYAVSMFNPQGNDMTKGLLTLAKGKPIGKEGYYWLKIHGANCAGVDKVPFPERIKFIEENHENIMACAKSPLENTWWAEQDSPFCFLAFCFEYAGVQHHGLSYNCSLPLAFDGSCSGIQHFSAMLRDEVGGRAVNLLPSETVQDIYGIVAKKVNEILQADAINGTDNEVVTVTDENTGEISEKVKLGTKALAGQWLAYGVTRSVTKRSVMTLAYGSKEYGFRQQVLEDTIQPAIDSGKGLMFTQPNQAAGYMAKLIWESVSVTVVAAVEAMNWLKSAAKLLAAEVKDKKTGEILRKRCAVHWVTPDGFPVWQEYKKPIQTRLNLMFLGQFRLQPTINTNKDSEIDAHKQESGIAPNFVHSQDGSHLRKTVVWAHEKYGIESFALIHDSFGTIPADAANLFKAVRETMVDTYESCDVLADFYDQFADQLHESQLDKMPALPAKGNLNLRDILESDFAFA
Relative ability to incorporate 3′-dATP (listed as F644Y/Δ3): 2.00±0.3 and 2.00 | Relative ability to incorporate 3′-dATP (listed as T7 RNA polymerase F644Y/Δ 3): 2.00 ± 0.3
